Patent US20230331827A1, “POTASSIUM CHANNEL INHIBITORS” (priority 2017, published 2023)

Legend:
[1] = tested on: trypsin; experiment: Phage TRF binding assay on immobilised biotinylated trypsin (monoclonal phage ELISA)
Procedure: Phage display technology facilitates isolation of binders to any given target from large combinatorial repertoires based on proteins and peptides that can be presented on the surface of filamentous phage^105. In order to isolate functional knottin-antibody fusions from the KnotBody libraries multiple rounds of phage display selections on trypsin (cognate antigen for the EETI-II donor) were carried out. Phage particles were prepared by rescuing KnotBody libraries using trypsin cleavable helper phage ^102,106Two rounds of phage display selections were performed on 10 µg/ml biotinylated trypsin immobilised on Streptavidin (for Round-1) or Neutravidin (for round-2) coated Maxisorp™ immunotubes (Thermo Scientific, Cat No. 444202). In both rounds of selection, phage libraries were pre-incubated with streptavidin coated paramagnetic beads (Thermo Fisher Scientific, Cat. No. 11205D). These beads were removed prior to the addition the phage to the antigen tubes to limit the streptavidin binders entering the selection. Polyclonal phage preparations from round-2 selection outputs were analysed for trypsin binding using a time resolved fluorescence (TRF) binding assay. In this assay, polyclonal phage binding to biotinylated trypsin immobilised on neutravidin (Thermo Fisher Scientific, Cat. No 31000) coated Maxisorp™ plates (Thermo Scientific, Cat. No. 437111) was detected using a mouse anti-M13 antibody (GE Healthcare, Cat. No. 27-9420-01) followed by europium conjugated anti-mouse antibody (Perkin Elmer, Cat. No. AD0124).
In order to identify monoclonal KnotBodies with desired binding characteristics, 94 individual clones derived from 2 rounds of selection using EETI-II CDR1 or CDR2 libraries were picked into 96 well culture plates and phage were prepared from each clone. Methods for screening by monoclonal phage ELISA are known in the art^107. […] Clones with >3x binding signal above background were picked as positive clones and sequenced to identify unique clones. 14 and 42 unique binders were identified from EETI-II CDR1 and EETI-II CDR2 libraries respectively (Table 1). 18 binders from the EETI-II CDR2 library and 3 binders from the EETI-II-CDR1 library were chosen for further characterisation based on their VL and linker sequence diversity. These binders were assigned new clone identification numbers (Table 2).
The trypsin binding capability of EETI-II is attributed to proline (Pro3) and arginine (Arg4) residues present in its loop1 (GCPRILMRC; SEQ ID NO: 68). […] Monoclonal phage was prepared from the 21 selected clones and their mutant equivalents. […] Replacement of the trypsin-binding residues of EETI-II abolished the ability of all KnotBody clones to bind to trypsin (Table 3). In order to confirm that the loss of trypsin binding was not due to reduced expression or display of pIII fusion phage was prepared from 11 (randomly chosen) KnotBodies and their GlyAla variants were analysed on a western blot using an antibody which recognises the product of gene 3 (pIII) using an anti-pIII antibody (MoBiTec GmbH) (FIG. 6).
Bovine antibodies have been described with natural ultra-long VH CDR3s containing a solvent exposed double stranded antiparallel sheet approximately 20 A° in length (referred to as the stalk) presenting a folded domain stabilised by 3 disulfide bonds (referred to as the Knob)^10. Zhang and colleagues have shown that the Knob domains of these cow ultra-long VH CDR3 antibodies (ULVC-Ab) can be replaced with other folded proteins such as erythropoietin^13. In this example, we assess the ability of a cow ULVC-Ab to present functional knottin fusions on phage in comparison with a KnotBody. In order to create a Knottin-cow UCLA fusion, the sequence between the first and the last cysteines of the knob region of the Cow ULVC-Ab BLV1H12 was replaced with the sequence of the trypsin binding knottin; EETI-II (EETI-II cow ULVC-Ab). A gene fragment encoding this construct was synthesised (Integrated DNA technologies, Table 21). […]

[2] = tested on: trypsin; experiment: KnotBody Fab TRF binding assay on biotinylated trypsin
Procedure: In order to confirm the trypsin binding ability of KnotBodies in Fab format, purified proteins were tested for binding to trypsin using a TRF binding assay. In this assay binding of KnotBody Fabs ([…]) to biotinylated trypsin (immobilised on streptavidin coated Maxisorp™ plates) was detected using a mouse anti-CH1 antibody followed by a europium conjugated anti-mouse antibody (Table 4). 7 KnotBodies (KB_A04, KB_A01, KB_A05, KB_A07, KB_A08, KB_A10, KB_A12) were chosen for crystallisation. DNA prepared for these clones were transfected into 500 ml HEK-293F cells as described before. Expressed proteins were purified using CaptureSelect IgG-CH1 affinity matrix. Purified proteins were initially subjected to crystallisation trials using commercially available crystallisation screens (Supplier). Well-defined crystals were readily obtained for KB_A12 and KB_A05. Crystallisation conditions for these two clones were further optimised and the following condition was used to generate diffraction quality crystals: 0.1 M MES pH=6.5, 25 %w/v PEG MME 2000 and 0.1 M Tris.Cl, 50% PEG MME, 10 mM NiCl2. Complete diffraction data was collected on these crystals at 100 K under liquid nitrogen stream. Collected data was processed using PROTEUM2 software (Bruker). The crystal structure of the knottin-fused Fab antibodies was resolved using molecular replacement technique^109 using Phenix software v 1.8.1-1168^110. Resulting structure was further refined using Phenix.Refine^111. The templates for molecular replacement were downloaded from PDB website (www.rcsb.org/pdb, PDB codes: 3G04 for light chain and 3QOS for heavy chain). KnotBody KB_A12 and KB_A05 sequences are given below. An additional AlaSer sequence is introduced at the N terminus of the light chain from the Nhe1 site used in cloning.
In order to compare the performance of the KnotBodies with short and long linkers, purified Fabs were tested for binding to trypsin by ELISA. In this assay binding of KnotBody Fabs (at 0.5 µg/ml) to biotinylated trypsin (5 µg/ml immobilised on streptavidin coated Maxisorp™ plates) was detected using a mouse anti-CH1 antibody (Hybridoma Reagent Laboratories) followed by a europium conjugated anti-mouse antibody (Perkin Elmer, Cat. No. AD0124). The trypsin binding capability of KB_A07 and KB_A12 KnotBodies were greatly diminished when the short selected linkers were replaced with long and flexible linkers (FIG. 22).

B1: KB_A05: EETI-II knottin fused into VL CDR2, D1A12 VH; trypsin binder (antibody)
heavy: EVQLVESGGGLVRPGGSLRLSCAASGFTFSSYAMSWVRQAPGKGLEWVSAISGSGGSTYYADSVKGRFTISRDNTKNSLYLQMTSLRADDTAFYYCVDFGPGYGTGWFDYWGPGTLVTVSSASTKGPSVFPLAPSSKSTSGGTAALGCLVKDYFPEPVTVSWNSGALTSGVHTFPAVLQSSGLYSLSSVVTVPSSSLGTQTYICNVNHKPSNTKVDKKVEPKSC
light: QSVLTQPPSVSEAPRQRVTITCSGSSSNIGNNAVNWYQQLPGKAPKLLIYAADKCPRILMRCKQDSDCLAGCVCGPNGFCGGGSGIPERFSGSKSGTSASLAISGLRSEDEADYYCATWDDNLNGVVFGGGTKLTVLGQPAAAPSVTLFPPSSEELQANKATLVCLISDFYPGAVTVAWKADSSPVKAGVETTTPSKQSNNKYAASSYLSLTPEQWKSHKSYSCQVTHEGSTVEKTVAPTECS
modifications: KB_A05 Heavy chain; KB_A05 Light chain
% reduction in binding signal ([1]; GlyAla mutant (Pro3, Arg4 of EETI-II substituted) versus the clone, monoclonal phage): 100% | Tryspin binding signal (FU) ([1]; monoclonal phage supernatant, biotinylated trypsin on neutravidin plates): 121458 FU | TRF signal for 0.6 ug/mL Fab ([2]; Fab 0.6 ug/mL): 46706 | TRF signal for 2.4 ug/mL Fab ([2]; Fab 2.4 ug/mL): 65386 | TRF signal for 10 ug/mL Fab ([2]; Fab 10 ug/mL): 217918
